These results are taken from PMC5360572 (EBioMedicine, 2017).

Common to all, as to assay: SPR; BIAcore 3000, 25 °C; PD-L1-Ig or PD-L2-Ig immobilized on CM5 chip by amine coupling; soluble monomeric PD-1 or mutants (0.01–100 μM) injected at 20 μl/min; equilibrium Kd, 1:1 Langmuir model
Holding throughout (conditions): both partners purified

Assay [1] deals with T1, human PD-L1 Ig fusion protein (human, UniProt Q9NZQ7 19-238).
T1 construct: characterized by SEC prior to use; detected on cells with anti-human IgG Fcγ-specific F(ab')2; also called huPD-L1; B7-H1; source: bought: R&D Systems

In assay [2] the target is T2, mouse PD-L1 Ig fusion protein (mouse, UniProt Q9EP73 19-239).
T2 construct: mouse PD-L1 part of a bought Ig fusion protein; also called mPD-L1; murine PD-L1-Ig; source: bought: R&D Systems

Assay [3] has as its target T3, mouse PD-L2 Ig fusion protein (mouse, UniProt Q9WUL5 20-221).
T3 construct: mouse PD-L2 part of a bought Ig fusion protein; also called mPD-L2; murine PD-L2-Ig; source: bought: R&D Systems
T3 sequence (looked up): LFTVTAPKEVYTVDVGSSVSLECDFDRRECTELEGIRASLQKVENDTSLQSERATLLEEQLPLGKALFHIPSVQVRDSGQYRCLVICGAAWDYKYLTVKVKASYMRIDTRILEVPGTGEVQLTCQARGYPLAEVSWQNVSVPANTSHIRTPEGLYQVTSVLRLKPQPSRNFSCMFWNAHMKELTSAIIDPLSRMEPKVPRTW

The target of assay [4] is T4, human PD-L2 Ig fusion protein (human, UniProt Q9BQ51 20-220).
T4 construct: characterized by SEC prior to use; also called huPD-L2; B7-DC; source: bought: R&D Systems
T4 sequence (looked up): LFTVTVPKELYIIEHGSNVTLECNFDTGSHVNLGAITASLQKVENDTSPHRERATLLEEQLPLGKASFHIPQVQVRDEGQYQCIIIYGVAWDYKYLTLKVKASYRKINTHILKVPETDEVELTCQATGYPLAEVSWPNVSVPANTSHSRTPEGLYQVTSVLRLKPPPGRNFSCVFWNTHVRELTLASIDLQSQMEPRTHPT

T2 sequence (Q9EP73 19-239): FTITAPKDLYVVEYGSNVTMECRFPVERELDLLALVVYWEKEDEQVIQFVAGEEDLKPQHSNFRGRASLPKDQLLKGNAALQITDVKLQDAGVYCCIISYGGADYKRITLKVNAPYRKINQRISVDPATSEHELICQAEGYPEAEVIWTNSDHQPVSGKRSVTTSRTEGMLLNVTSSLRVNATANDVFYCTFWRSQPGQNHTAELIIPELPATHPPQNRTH
T1 sequence (Q9NZQ7 19-238): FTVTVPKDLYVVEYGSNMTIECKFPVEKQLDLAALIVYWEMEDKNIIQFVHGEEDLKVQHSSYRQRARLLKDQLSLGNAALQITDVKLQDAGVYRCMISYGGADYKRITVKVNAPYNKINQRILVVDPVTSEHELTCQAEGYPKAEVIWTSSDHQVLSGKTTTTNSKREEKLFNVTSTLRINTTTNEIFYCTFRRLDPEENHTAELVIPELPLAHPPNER

B1: mouse PD-1 A132L mutant (soluble, monomeric) (domain or fragment)
chain: SLTFYPAWLTVSEGANATFTCSLSNWSEDLMLNWNRLSPSNQTEKQAAFCNGLSQPVQDARFQIIQLPNRHDFHMNILDTRRNDSGIYLCGAISLHPKLKIEESPGAELVVTERILE
notes: the same molecule is used for the SPR analyte and for the crystallised complexes (PDB 3SBW, 3RNK, 3BP6); also called mA132L; mouse analog of A132L
As to B1, the Kd is 480 nM in assay [1], 2780 nM in assay [2], 470 nM in assay [3] and 1180 nM in assay [4].
